Key:
[1] = target: T1, Ebola virus (EBOV) glycoprotein (GP), wild-type, construct not stated (Ebola virus (EBOV), UniProt Q05320 33-650); experiment: cell-based or functional assay
T1 sequence: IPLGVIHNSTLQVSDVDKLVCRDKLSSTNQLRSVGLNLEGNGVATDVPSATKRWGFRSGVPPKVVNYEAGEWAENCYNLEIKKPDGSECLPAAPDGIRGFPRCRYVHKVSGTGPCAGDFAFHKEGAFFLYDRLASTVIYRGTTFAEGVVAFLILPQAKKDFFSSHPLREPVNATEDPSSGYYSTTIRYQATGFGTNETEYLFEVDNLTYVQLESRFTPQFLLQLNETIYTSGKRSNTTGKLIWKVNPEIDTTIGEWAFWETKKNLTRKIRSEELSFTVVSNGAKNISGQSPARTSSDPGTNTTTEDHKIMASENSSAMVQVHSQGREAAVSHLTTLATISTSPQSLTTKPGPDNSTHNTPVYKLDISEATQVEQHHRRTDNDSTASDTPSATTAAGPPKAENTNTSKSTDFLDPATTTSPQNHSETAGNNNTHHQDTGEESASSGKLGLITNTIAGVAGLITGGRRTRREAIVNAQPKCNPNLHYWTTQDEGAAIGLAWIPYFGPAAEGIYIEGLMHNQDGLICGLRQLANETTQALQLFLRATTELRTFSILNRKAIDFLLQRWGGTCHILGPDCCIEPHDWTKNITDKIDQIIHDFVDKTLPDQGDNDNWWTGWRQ

[2] = target: T2, thermolysin-cleaved GP (GPCL) (Ebola virus (EBOV), UniProt Q05320 33-190; Q05320 502-650); experiment: biolayer interferometry
T2 sequence 1: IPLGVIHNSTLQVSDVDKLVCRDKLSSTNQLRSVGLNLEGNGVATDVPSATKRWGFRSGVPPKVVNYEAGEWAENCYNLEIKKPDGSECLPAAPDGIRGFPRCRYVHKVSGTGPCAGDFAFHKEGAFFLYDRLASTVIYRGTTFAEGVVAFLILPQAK
T2 sequence 2: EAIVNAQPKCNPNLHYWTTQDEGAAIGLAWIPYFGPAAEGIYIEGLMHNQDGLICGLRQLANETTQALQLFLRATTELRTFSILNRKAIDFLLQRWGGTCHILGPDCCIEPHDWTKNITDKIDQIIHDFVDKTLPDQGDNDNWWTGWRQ

[3] = target: T2, thermolysin-cleaved GP (GPCL); experiment: ELISA

B1: m8C4 (antibody, V domains shown)
VH: EVQLQESGPELKKPGETVKISCKASGYTFTTYGMSWVKQAPGKGLKWMGRINTYSGVPTYADEFKGRFAFSLENSASTAYLQINNLKNEDTATYFCARGDGGHWFANWGQGTLVTVSA
VL: DIQMTQSPSSLSASLGGKVTITCKASQDINKNIAWYQHKPGKGPRLLIWYKSALQPGIPSRFSGSGSGRDYSFSISNLEPEDIATYSCLQYDNLPPTFGGGTKLEIKR
With B1 the “EC50 of neutralization of luciferase-expressing VSV pseudotype on Vero cells” value [1] was > 10 µg/mL.

B2: CA45 (antibody, V domains shown)
VH: QVQLQEWGEGLVKPSETLSLTCAVYGGSISGYYHWNWIRLPPGKGLEWIGNIDNSASTNYNPSLKTRVTISKDTSKNQISLKVRSLTAADTAVYYCARDPGFTIFGVVITSWSGLDSWGQGAVVTVSS
VL: DIQMTQSPSSLSASVGDTVTITCRASQSISNNLAWYQQRPRRAPQLLIYAASNLASGVPSRFSGSGSGTDFTLTISSLQAEDFAAYYCQQHNTLPLTFGGGTKVEI
With B2 the Kd [2] was < 0.006 nM, the koff [2] was < 1e-07 s⁻¹ and the kon [2] was 16000 M⁻¹ s⁻¹. The EC50 [3] was 0.06 nM.

— patent publication US20190381162A1 (INTEGRATED BIOTHERAPEUTICS, published 2019)
